Consider one substance from paper PMC10492824.

The target in assay [1] is Zn-containing form of the soluble domain of the Rieske-type iron-sulfur protein PetA from Thermochromatium tepidum (Thermochromatium tepidum). Kind of assay: SEC-MALS; Superdex 200 Increase 10/300 GL, buffer A, 0.5 mL/min, 24 °C; about 100 µL of 7.3 mg/mL protein (first colorless SEC fraction) injected.
For assay [2] the target is unchanged. Kind of assay: SEC; purification step after removal of the His-tag; HiLoad 16/60 Superdex 75 in buffer A (10 mM Tris-HCl pH 7.6, 150 mM NaCl); masses estimated with low molecular weight marker mixture.

As to “Zn-containing form of the soluble domain of the Rieske-type iron-sulfur protein PetA from Thermochromatium tepidum (domain or fragment)”, the stoichiometry N in assay [1] and in assay [2] was 2 in each case.

For orientation: stoichiometry N means the number of molecules, sites or subunits per partner or assembly.
